The DeepSol protein solubility set

test: soluble on expression in E. coli; label from the status in PepcDB or PDB records

Sequence | soluble on expression in E. coli
AGQGESGNPPATDKERFIASLMARMSNAEKIGQLRLVSVGADHPKEALMADIRAGKVGAIFNTVTRPDIRAMQDQVRHSRLKIPLFHAYDVAHGHRTIFPISLGLAASWDPEVVARSARISALEASADGLDMSFSPMVDITRDARWGRVSEGFGEDTYLTSLLSGVMVRAYQGSNLAAPDSIMAAVKHFALYGAAEGGRDYNTVDMSLPRMFQDYLPPYKAAVDAGAGAVMVSLNTINGVPATANRWLLTDLLRQQWGFKGLTISDHGAVKELIKHGLAGNERDATRLAIQAGVDMNMNDDLYSTWLPKLLAAGEIDQADIDRACRDVLAAKYDLGLFADPYRRLGKPDDPPFDTNAESRLHRQAAREVAREGLVLLKNRDGLLPLKKQGRIAVIGPLAKSQRDVIGSWSAAGVPRQAVTVYQGLANAVGERATLLYAKGANVSGDQAILDYLNSYNPEVEVDPRSAEAMLEEALRTARDADLVVAVVGESQGMAHEASSRTDLRIPASQRRLLKALKATGKPLVLVLMNGRPLSLGWEQENADAILETWFSGTEGGNAIADVLFGEHNPSGKLTMSFPRSVGQVPVYYNHLNTGRPMDHDNPGKYTSRYFDEANGPLYPFGYGLSYTEFSLSPLRLSSERLARGATLEARVTLSNSGKRAGATVVQLYLQDPVASLSRPVKELRGFRKVMLEPGESREIVFRLGEADLKFYDSQLRHTAEPGEFKVFVGLDSAQTESRSF | not soluble
MEQSQRTQLSYEGAKSVIRFMSIEKRIQIHCRIPYYRKTNALFPYAHRQMTLSSDGISIGSNHYTFDIRRSNFGRRFRDDFGGESDEEPEAAPLEPALAELNLRDRARREREILREEHYQREDDERLRAQQNQVHIRYGETQYEVRRNFGQRRNPEEAFIKLFDAYISTGTTIEKLLFTGFPKFLKKRDPSKLQFKVRELKLSSLRDRTLEKIVPFIGASKLKKMNLDVGPDTISYLDLPMIKNCEVLNLNISMWNERNRQRNENNNFSKLSNLRNMKLNLILERFTIDDLQRLALNWIFTRRPIGTYFKTGVNQQYDHILDIFDRLIEENRASRCRITKLGTVYFANGVKLSIDGKSELVVYGGPKWKTRAGIDGQWTIHMEVMAVGDTTPSA | not soluble
MDWIQCNHCGIKPNQTKLYLTACGHVFCQNCTKAAFNSQCYLCKKPLKVDEINKNLRPDLMELFKDPRQLASDLVNELKQVVAFQAKQREIYVKCKNAEAKKDTERFAEARSKHVEKTQEIEKRKKAFLEDNVKLKNAKEEKNQLMARLKELREQPSQNLSVNKRRSNTRTEPPFSKISRTGPPSVMRKASHEFSLNLRDQSTSKILTSTPLSNIDYSRRDHRNRLFGAGLEHPSPILRQ | soluble
MGSDKIHHHHHHVEYRLPAEGSNLVGENQYYVVPEGKLTLEQIASQFQLGLTNLLEANPGVDPFLPKPGSTLLIPHQLILPNAKREGVVINSAEMRLYYYPKGKNTVEVLPIGIGQIGKDTPENWVTTVQRKRANPTWTPTVNIRKSYAAKGITLPAVWPAGADNPMGLFALYVGNLYAVHGTNATFGIGLRVSSGCVRLRDEDIEHLYNSVPVGTRVEFINQPIKATEEPDGNRYLEVHEPLSRTQAEFDSLEPVALSFDKAMTRFVAHPDTDSFTLKRLLEQRTGMPTRINP | not soluble
MAPAPAAEFWEARYRDTGRVWSGRPNELLVQEAGGLAPGTALDLGCGEGADAVWLASRGWRVTGVDISATALERAAGHADGAGVGDRVLWERHELGPSFPEGSFDLVSAHYLQSPVALDQQAVLRAAARAVAPGGTLLVVMHAGWPSWQTEPPFDAAFPTLDGVLAELALPEGEWSVETRRTARRPLEHHHHHH | not soluble
GMLELVGEYWEQLKITVVPVVAAAEDDDNEQHEEKAAEGEEKEEENGDEDEDEDEDEDDDDDDDEDEEEEEEVTDQLEDLREHFKNTEEGKALVHHYEECAERVKIQQQQPGYADLEHKEDCVEEFFHLQHYLDTATAPRLFDKLK | soluble
MSLVSIKDIARYCGVSAMTVSRALNNSDDIAEATKEKILKVCEELKYKPNSAAKSLITKKTNMIGLIIPDIANQYYANISKGVSSYIEKHGYGLILCNSNRKKPNEVKYLDFLSEGRVDGIIILPVKPRKEDYEDISRQIPMVMADNFAKGLEVNFVGIDNYAGAIKIITHMVNQGYKKIGVILGDKDSTASSERLNGYKKVLEDKGISYNEDIVIHSNSTFEDGFNIASILIEKGVDSIFAINDTVAMGVIKYCYEKGIKLPEELGLAGYDNIEQAAMLTIPLTTVDQDNKKIGTIAAKMLVDAIKGNAKKTEKIILEPTLVIRKSCGEEGHHHHHH | soluble
GDTHEFHKLLIKVVDLFLEDRIKEFEMKLNTTLDELEFEELIGKPDSSNSAENNGIFIDEYSYDASENAMKKLFVEYVRQPEFKYTVLSIKGVNDWVRE | soluble
MAHHHHHHMLSIRKCNIYDLLSMQQCNSINLPENYNLRYYFYHALSWPYLSQIAEDVNGKVCGYSLGKLEEDNEYKGHLTSVAVLKTYRKLKLAFYLILQTHQHLKDIYRANNICLHVRVSNNAALNLYYNLLNYKVNGIETQYYGNKENAYLMEHVFAR | not soluble
MPSKKKKIVVIGRSNLQNLYIHTILLKKLPAEIYLIDEQAKTSVQDFEYASYYHSSATVNTGTFNECRSADLVLFFQEEMSNESFSNEDNLALIKEKVKKMMATGFQGIVLVATAESNIVASLIKHFSGLPANQIITPGTMLATSYFQVEIAKLFKISPKNVHGYIIGESTQDVIPVWSRAFLGGKPILSYLAEEQKRITSDDLQNLTNMITKIPDFPVETKDGCSFRFSTVTVLAELTEVILRDEARVLTVGVEVKEAYGLERPVFVSVPAVVGAEGVRELLELNLSDDEQKELKRITTKTTEKLGLLHNKGGIS | not soluble
GLGNVDETLEIKQLLNIYRDLQLGHFCAFYQPQKHIDSGGVVAFEALARRVIGKGLYEMPDRFFPILEKYHLIPTLTEVMVRDILTFLMTEDAVLQDITIGVNIPGKMLTDGSFYRLLLSVAEEKQAQHALHRLSVEITEHDLIADFDAAKHEIYKLKSLGIRCALDDFGTGYSGYEYLCEIPFDVVKIDGRYIQSLGKAESSTVILQSMISSIKSLSMQVIAEWVDSDQQYQILQEMGCDLVQGYLVSPA | not soluble
GPGSMVDDFSSLSSPYVFLHGPLCSKDTCAVAAIGTTARLPYARPHSLLPLTSFLALRPAVSSGGLRHTRAYTHLLDTRVQVRIAMSEAAPPPVLGTASSAVAPQPFGGSEASRKRRLKPISFQRMAMIQEEIARIDKHLEALEASESKVVDPDSVGQHNLTTEDVIDPVVLHMLTVELCQLAASGDAVGARILLTGGADPNSRDYDGRTLLHIACMNGRLSVVTVLLEFSADASLLDRDGNTPLEVAEEYGFGDVAQVLSGYFDAGANAVPDSFTWKPPSFESTPVSIHQPDFSAVP | not soluble
MARTVNLKGNPVTLVGPELKVGDRAPEAVVVTKDLQEKIVGGAKDVVQVIITVPSLDTPVCETETKKFNEIMAGMEGVDVTVVSMDLPFAQKRFCESFNIQNVTVASDFRYRDMEKYGVLIGEGALKGILARAVFIIDKEGKVAYVQLVPEITEEPNYDEVVNKVKELI | not soluble
MKFTPPPASLRNPLIIPEKIMMGPGPSNCSKRVLTAMTNTVLSNFHAELFRTMDEVKDGLRYIFQTENRATMCVSGSAHAGMEAMLSNLLEEGDRVLIAVNGIWAERAVEMSERYGADVRTIEGPPDRPFSLETLARAIELHQPKCLFLTHGDSSSGLLQPLEGVGQICHQHDCLLIVDAVASLCGVPFYMDKWEIDAVYTGAQKVLGAPPGITPISISPKALDVIRNRRTKSKVFYWDLLLLGNYWGCYDEPKRYHHTVASNLIFALREALAQIAEEGLENQIKRRIECAQILYEGLGKMGLDIFVKDPRHRLPTVTGIMIPKGVDWWKVSQYAMNNFSLEVQGGLGPTFGKAWRVGIMGECSTVQKIQFYLYGFKESLKATHPDYIFEESNGFH | soluble
MEVTDVRLRRVNTEGRMRAIASITLDHEFVVHDIRVIDGNNGLFVAMPSKRTPDGEFRDIAHPINSGTRSKIQDAVLTEYHRLGELEEVEFEEAGAS | not soluble
MGSDKIHHHHHHMLEEGEHVLVAVSGGIDSMTLLYVLRKFSPLLKIKITAAHLDHRIRESSRRDREFVERICRQWNIPVETSEVDVPSLWKDSGKTLEEIAREVRYDFLKRTAKKVGASKIALAHHKNDLLETVVHRLIRGTGPLGLACISPKREEFIRPFLVFKRSEIEEYARKNNVPYVVDETNYNVKYTRNFIRHRIVPLMKELNPTVEDAVYRLVSVTHLLRNFVERTVQDFVERNVYFYKDYAVFVEPEDLFLFLEVTRWVLKEMYGRVPEYEKLIGTLKSKRVELWSGIFVERSFGYVAVGKTVFKKKYRVEVKGDMLEMEGFKIRVVNNRNDMKFWVRNRKEGDRIIVNGRERKLKDVFIEKKVPTFYRDRVPLLVDEEDRVLWVPGIARSDFLPEDVVVELLEYPVGYVKGGTYFEQV | not soluble
MTDLQVFEMNPQLNFPISDKTIYQMGFNSSAAQPSAANYVTESNSLTNHLQILDLLNPQTSSGSDDKKRQFFADLMTPHYEKQAEIEKKIDDLSEVVHQFIQSQQSLNKLILEKCLGRIPSPRMTSPHQPEDNSIDDMDPPVQEEIEEKIENDTFGQNEVTVNQQPINNPMPVYPVPISHEPANLHSPIRNRSISPEKMDTTGNSGAGMSVRDFLKNTMTVQKADEKILEEELERERDEAAQTVRYNKFRVRNRPKKYKRSAVTFTSSLEAATSSSSSTIPHQDQGPTFSTHSTIGNSSDTSQLMEQLDQSQNDSIDIEENVYQPIVVPCVQRAPELDLTLMQPVFSTASSYVLNSSALDPTTHQAQSSLSALTDSKFQTDPNNLWKAVDGVSQLLVDAPSLLESDLRSFTDHSHHSSFLPFVANHEPLHRSAFLPPQYHKDRRIHQQMDSHLSDTLRNL | not soluble
MRLGVNVDHVATVRQARRTFEPSPVFAALIAQQAGADQITLHLREDRRHIQDRDLELIKELITIPVNLEMAPTEEMREIALRVKPDRITLVPERREEITTEGGLDVVSLKEKLKEYLKPIKEAGIEVSLFIEAQKEQIDASVEVGADAIEIHTGRYANLWNEHRFEEAKEELNRIKEAAIYAKEKGLKVYAGHGLTYHNVKDFVRELKGYVEELNIGHSIVANAVIFGFERAVKEMLNLIKT | soluble
MSTQEVNITLTDFINQLDSNAEQVSFEQVMKVISENYNYLPATFNNGDLFNEAGTNEGSCKIFYFAKLNNLSEQQTLACFGRFYREDVVNNPQGNDHGNIRNFMQSGWSKVEFNSVALTPLT | not soluble
MSLEKKITPSELELNEFIKIINEMSGIDLTDKKNILALKLNKFLEGTNTKNFSEFLGKLKSNRQLKQETLDFVTIGETYFLRELAQLKEIIYYAKSLEKRVNILSAPCSSGEEVYSLALLAAQNFIKDMYILGVDINSSVIEKAKLGKYQGRTLQRLSESEKRRFFLESEDKFYTINKNELCTCKFELCNVFEEKFSRLGKFDIIASRNMIIYFDHESKLKLMERFHRILNDKGRLYVGNADLIPETIYFKKIFSPRGVYYEKEGHHHHHH | soluble
MSIRDERKQQSRQALLDAALQLSTGGRSFSSISLREVAREVGLVPTAFYRHFQDMDALGQELVDQVALHIKSLIHQLGQSYLQQVSTHPDSSIELFFQAINHSPLEWQFMIAERWGGSAAVRQAIAREIEDLIEDLATDLRKLPMFEHIQDSQDLKVLSTILINLSFTWAMTWLSLASQYQDAALSQHQQQFVENANTQIRLMFRGVANWG | not soluble
MSSGDQNRGGVADKALQLVLEMKRNPDVLPPYNTELVRQCYQKIDELFQKNAAVVEKIRAGLPHDSTLLQPRLAAMCHIRRCMMAYVNERKNRIRSFRWKYGGALPASVRNALCDAEIQFFNEYSSTLARFQSNLGEGGVNLLLHSAPPKSLFVQVRALEDYGEFETSDGTQVQLSKDSLHSLPRQDCEMLIRQGVLELVH | not soluble
